Entries after “also recorded” stand apart in the source; their conditions may differ.
Experiments:
[1] = Biodistribution after subcutaneous application in uPA+/−/RAG-2−/−Pfp−/− mice; assay type: in vivo; details: 2.25 μg 131I-labeled peptide s.c., 10 min to 24 h
[2] = Stability assessment of peptide after extraction from the liver (reversed phase HPLC); assay type: in vivo, uPA+/−/RAG-2−/−Pfp−/− mice; details: liver extracts 24 h post subcutaneous injection, 131I-labelled
Procedure: Per animal approximately 2.25 μg of the ^131I-labelled peptides were subcutaneously injected. At the indicated time points animals were sacrificed and the liver specific peptide accumulation (% ID/g) was determined. (B) Reversed phase HPLC of pure ^131I-labelled HBVpreS/2-48^myr(D) (brown curve) in comparison to liver extracts (orange curve) obtained 24 h post subcutaneous injection into uPA+/−/RAG-2−/−Pfp−/− mice of the same peptide. Note that 50% of detectable activity is eluting at fraction 13. Since the hydrophobic myristoyl residue is located at the N-terminus and the iodinated Tyr-residue at the C-terminus fraction 13 represents the unaltered full-length peptide.
To determine the peptide stability in the liver 131I labelled HBVpreS/2-48^myr (D) was extracted from one liver lobe 24 h post subcutaneous injection. To that aim, 1 ml water per gram frozen liver tissue was added to the sample. After homogenization an equal volume of acetonitrile was added and the homogenization was repeated. After centrifugation (2×10 min at 4000×g) this solution was separated on a reverse phase HPLC column and the radioactivity of each fraction was quantified in a gamma counter.

[3] = Biodistribution of 131I-labelled peptides after subcutaneous injection in NMRI mice; assay type: in vivo, male NMRI mice; details: 2.25 μg 131I-labeled peptide s.c., 10 min, 1 h, 4 h and 24 h post injection
Procedure: Per time point 2.25 μg of ^131I-labeled HBVpreS/2-48^myr(D) were subcutaneously injected into NMRI mice (N=3). 10 min, 1 h, 4 h and 24 h post injection animals were sacrificed and the organ-specific (blood, lung, heart, spleen, liver, kidney and muscle) peptide accumulations (% ID/g) were determined.
The biodistribution of the hydrophobic modified preS-derived peptides was studied in male NMRI mice. All experiments were performed in compliance with German laws. The peptides, containing an additional Tyr-residue at the C-terminal end were labelled with ^131I (Amersham Biosciences, Freiburg, Germany) by the chloramine-T method and purified by HPLC. The labelled peptides were subcutaneously administered by injection of a solution in 50% DMSO. At selected times mice were sacrificed and the radioactivity contained in the blood, heart, lung, spleen, liver, kidney, muscle and brain was measured in a γ-counter (Canberra Packard, Rüsselsheim, Germany) and expressed as a percentage of injected dose per gram of tissue (% ID/g).

[4] = test system: Primary mouse hepatocytes (PMH); test: Immunofluorescence binding to primary mouse hepatocytes; assay type: cell-based; details: 400 nM peptide, 4 hours at 37° C.; for Binding to primary mouse hepatocytes (PMH): differentiated PMH
Procedure: (§1) Cells were incubated with or without 400 nM peptide for 4 hours at 37° C.:
[…] After 1 hour incubation at 37° C. cells were fixed and nuclei were stained with DAPI. Fluorescence microscopy was performed on a Spinning Disk Confocal Microscope at 600× magnification.

[5] = test system: primary human hepatocytes (PHH); test: Immunofluorescence binding to primary human hepatocytes; assay type: cell-based; details: 400 nM peptide for 4 hours, confocal immunofluorescence
Procedure: Primary human hepatocytes (PHH) were incubated with or without 400 nM peptide for 4 hours:
(§2) Primary hepatocytes grown on cover slips were incubated with the respective peptide at 200 nM in serum-free cell culture medium. After 1 hour incubation at 37° C. cells were fixed and nuclei were stained with DAPI. Fluorescence microscopy was performed on a Spinning Disk Confocal Microscope at 600× magnification.

HepaRG cells = test: Immunofluorescence binding to HepaRG cells; assay type: cell-based; details: 400 nM peptide, 4 hours at 37° C.
Procedure: as §1
HepaRG cells were grown in William's E medium supplemented with 10% fetal calf serum (FCS), 100 units/ml penicillin, 100 μg/ml streptomycin, 5 μg/ml insulin and 5×10^−5 M hydrocortisone hemisuccinate (10). Cells were passaged 1/5 every two weeks by trypsination. Two to three weeks before infection cell differentiation was induced by adding 2% DMSO into the maintenance medium. The medium was exchanged every 2-3 days.
as §2

[6] = test system: Primary mouse hepatocytes (PMH); test: FACS analysis of binding to primary mouse hepatocytes; assay type: cell-based; details: 200 nM, 30 minutes at room temperature
Procedure: Cryo-preserved primary hepatocytes were thawed and washed with serum-free medium. In each reaction 4×10^5 cells/ml were incubated with the respective peptide at a concentration of 200 nM in serum-free cell culture medium. The staining was performed for 30 minutes at room temperature with frequent mixing. Subsequently, cells were washed extensively and resuspended in PBS to proceed with the FACS analysis.

| Substance | organ-specific peptide accumulation (biodistribution) [1] | detectable activity eluting at fraction 13 (unaltered full-length peptide) in liver extract [2] | organ-specific peptide accumulation (biodistribution) [3] | Binding to primary mouse hepatocytes (PMH) [4] | Binding to primary human hepatocytes (PHH) [5] | Binding to differentiated HepaRG cells (HepaRG cells) | Binding to primary mouse hepatocytes (PMH), FACS analysis [6] | Binding to de-differentiated primary mouse hepatocytes (PMH) ([4]; de-differentiated PMH) | Binding to undifferentiated HepaRG cells (HepaRG cells; undifferentiated cells) |
| --- | --- | --- | --- | --- | --- | --- | --- | --- | --- |
| HBVpreS/2-48^myr(D): SEQ ID NO. 23, genotype D residues 2-48, N-terminus myristoylated | most of the peptide accumulates in the liver | 50% | most of the peptide accumulates in the liver |  |  |  |  |  |  |
| mut myr-FITC: HBVpreS/2-48 myr (C)-FITC with D-Leu and D-Phe at positions L11 and F13 [reference compound] |  |  |  | Only wt myr-FITC binds to the cells | only in B binding of the peptide to the cells can be seen | Only wt myr-FITC binds to the cells | Only wt myr-FITC binds to the cells |  |  |
| wt myr(−)-FITC: HBVpreS/2-48(C)-FITC without myristoylation [reference compound] |  |  |  | Only wt myr-FITC binds to the cells | only in B binding of the peptide to the cells can be seen | Only wt myr-FITC binds to the cells |  |  |  |
| wt myr-FITC: HBVpreS/2-48 myr (C) with lysine at the C-terminus [SEQ ID NO. 39], labelled with FITC |  |  |  | Only wt myr-FITC binds to the cells; also recorded: binds only to differentiated cells | only in B binding of the peptide to the cells can be seen | Only wt myr-FITC binds to the cells; also recorded: binds only to differentiated cells | Only wt myr-FITC binds to the cells | binds only to differentiated cells | binds only to differentiated cells |

Source: patent publication US9868768B2, “Hydrophobic modified pres-derived peptides of hepatitis B virus (HBV) and their use as vehicles for the specific delivery of compounds to the liver” (RUPRECHT-KARLS-UNIVERSITAT HEIDELBERG, priority 2008, dated 2018)
